These results are taken from US20110263825A1 (OSAKA UNIVERSITY, published 2011).

Experiment [1] concerns the target T1, human CD20 antigen (human, UniProt P11836 1-297).
T1 construct: whole, on cells; also called human CD20 molecule
T1 sequence (looked up): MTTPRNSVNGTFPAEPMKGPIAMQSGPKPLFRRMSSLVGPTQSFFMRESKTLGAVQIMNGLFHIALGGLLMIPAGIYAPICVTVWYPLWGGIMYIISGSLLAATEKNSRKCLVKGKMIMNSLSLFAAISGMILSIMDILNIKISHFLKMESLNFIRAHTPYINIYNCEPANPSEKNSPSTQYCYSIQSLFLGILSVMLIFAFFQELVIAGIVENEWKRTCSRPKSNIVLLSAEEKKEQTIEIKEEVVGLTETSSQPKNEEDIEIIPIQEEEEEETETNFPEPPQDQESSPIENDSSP
Nature of the experiment: Scatchard analysis on Raji cells, FITC anti-mouse IgG detection.

The target in experiment [2] is T1, human CD20 antigen. In words: Scatchard analysis on Raji cells, FITC-labeled Protein A detection.
For experiment [3], the target named is T1, human CD20 antigen. Nature of the experiment: Scatchard analysis on Raji cells, FITC-labeled Protein A detection; repeated from Table 8.

In general, Kd refers to the equilibrium constant for the complex coming apart. A high value points to weaker binding.

Molecule mouse antibody 2B8 yielded a Kd in experiment [1] of 6.79 nM.

B1: humanized antibody 1782 clone ff (antibody, V domains shown)
VH: QVQLVQSGAEVKKPGASVKVSCKASGYTFTSYWMHWVKQAPGQGLEWIGYITPSTGYTDYNKKFKDKATLTADRSSSTAYMELSSLRSEDTAVYYCARSGPYFDVWGAGTTVTVSS
VL: DILLTQSPATLSVSPGERATLSCRASQNIGTSIHWYQQRPGQSPRLLIKYASESFSGIPSRFSGSGSGTDFTLTINSLQPEDIADYYCQQSNSWPFTFGSGTKLEIK
notes: kg1 constructs (C kappa / C gamma1 vector); also called h1782ff; hz1782-ff14
Turning to B1, the dissociation constant (Kd) in experiment [2] and in experiment [3] was 4.38 nM in each case.

B2: humanized antibody 1782 clone sf (antibody, V domains shown)
VH: QVQLVQSGAEVKKPGASVKVSCKASGYTFTSYWMHWVKQAPGQGLEWIGYITPSTGYTDYNKKFKDKATLTADRSSSTAYMELSSLRSEDTAVYYCARSGPYFDVWGAGTTVTVSS
VL: DILLTQSPATLSLSPGERATLSCRASQNVGTSLHWYQQKPGQSPRLLIKYASERFTGIPSRFSGSGSGTDFTLTISSLEPEDFADYYCQQSNSWPFTFGSGTKLEIK
notes: kg1 constructs; also called h1782sf; hz1782-sf23
In the case of B2, the Kd in experiment [2] and in experiment [3] was 7.43 nM in each case.

B3: humanized antibody 1782 clone ss (antibody, V domains shown)
VH: QVQLVQSGAEVKKPGASVKVSCKASGYTFTSYWMHWVKQAPGQGLEWIGYITPSTGYTDYNQKFQGKATLTADRSSSTAYMELSSLRSEDTAVYYCARSGPYFDVWGAGTTVTVSS
VL: DILLTQSPATLSLSPGERATLSCRASQNVGTSLHWYQQKPGQSPRLLIKYASERFTGIPSRFSGSGSGTDFTLTISSLEPEDFADYYCQQSNSWPFTFGSGTKLEIK
notes: kg1 constructs; also called h1782ss; hz1782-ss21
With B3, the Kd in experiment [2] and in experiment [3] was 8.64 nM throughout.

B4: humanized antibody 1782 clone fv (antibody, V domains shown)
VH: QVQLVQSGAELKKPGASVKVSCKASGYTFTSYWMHWVKQAPGQGLEWIGYITPSTGYTDYNKKFKDKATLTADRSSSTAYMELSSLRSEDTAVYYCARSGPYFDVWGAGTTVTVSS
VL: DILLTQSPATLSVSPGERATLSCRASQNIGTSIHWYQQRPGQSPRLLIKYASESFSGIPSRFSGSGSGTDFTLTINSLQPEDIADYYCQQSNSWPFTFGSGTKLEIK
notes: kg1 constructs; also called h1782fv; hz1782-fv02
For B4, the dissociation constant (Kd) in experiment [2] and in experiment [3] was 6.76 nM each time.
